In PMC10579229 (Nature Communications, 2023):

Tests used:
[1] = target: the molecule itself; test: crystal structure; P-domain and M4 mixed 1:1.5, complex peak from S200 gel filtration; crystals at 20 °C in 2% Tacsimate pH 4.0, 0.1 M sodium acetate pH 4.6, 16% PEG 3350; 2.87 Å
[2] = target: capsid protein VP1 of GII.4 Den Haag HuNoV (human norovirus GII.4 (Den Haag))
[3] = target: capsid protein VP1 of GII.4 New Orleans HuNoV (human norovirus GII.4 (New Orleans))

Binder	stoichiometry N [1]	IC50 of neutralisation of GII.4 Den Haag HuNoV (stool filtrate, 100 TCID50) in J4 FUT2 human intestinal enteroid monolayers; viral genome equivalents by RT-qPCR at 24 hpi [2]	IC50 of neutralisation of GII.4 New Orleans HuNoV (stool filtrate, 100 TCID50) in J4 FUT2 human intestinal enteroid monolayers; viral genome equivalents by RT-qPCR at 24 hpi [3]
GII.4 Sydney 2012 P-domain (protruding domain of the capsid protein VP1) (domain or fragment, biotin (EZ-Link NHC-LC-LC-biotin), in the BLI only, also called GII.4 P-domain; GII.4 Sydney P-domain; source: E. coli BL21(DE3), purified (His-Trap, TEV cleavage, His-Trap, MBPTrap, SEC); not shown: His6, N-terminal, cleaved; MBP, N-terminal, cleaved) ESRTKPFSVPVLTVEEMTNSRFPIPLEKLFTGPSSAFVVQPQNGRCTTDGVLLGTTQLSPVNICTFRGDVTHITGSRNYTMNLASQNWNDYDPTEEIPAPLGTPDFVGKIQGVLTQTTRTDGSTRGHKATVYTGSADFAPKLGRVQFETDTDRDFEANQNTKFTPVGVIQDGGTTHRNEPQQWVLPSYSGRNTHNVHLAPAVAPTFPGEQLLFFRSTMPGCSGYPNMDLDCLLPQEWVQYFYQEAAPAQSDVALLRFVNPDTGRVLFECKLHKSGYVTVAHTGQHDLVIPPNGYFRFDSWVNQFYTLAPMG	2	–	–
nanobody M4 (VHH) VHH: QVKLQQSGGGLVQPGGSLRLSCAASESTISINTLGWYRQAPGNQRELVATITTGGTTNYADSVKGRFTISRDNAKNTVYLQMNNLEPGDTAVYYCNLKRRDLQSRFGGYWGQGTQVTVSS	–	0.379 µg/mL	0.056 µg/mL
